# Test results taken from US8034783B2, “Prodomain modulators of ADAM 10” (Biozyme, Inc., priority 2006, dated 2011).
# T1: mouse ADAM 10 catalytic domain (Mus musculus, UniProt O35598)
# T1 construct: mouse ADAM 10 catalytic domain (unpublished observation)
# T1 sequence (O35598 221-457 limits assumed): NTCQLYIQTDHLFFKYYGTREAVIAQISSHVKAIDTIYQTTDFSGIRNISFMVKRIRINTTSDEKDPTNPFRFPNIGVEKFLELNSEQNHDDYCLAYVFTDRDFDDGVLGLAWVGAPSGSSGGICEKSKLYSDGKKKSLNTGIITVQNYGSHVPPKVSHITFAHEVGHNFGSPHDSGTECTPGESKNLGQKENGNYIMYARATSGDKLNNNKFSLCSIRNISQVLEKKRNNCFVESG
# T2: human ADAM 9 catalytic/disintegrin domains (Homo sapiens, UniProt Q13443)
# T2 construct: human ADAM 9 catalytic/disintegrin domains activity; purchased R & D Systems (Minneapolis, Minn., USA)
# T2 sequence (Q13443 206-697 limits assumed): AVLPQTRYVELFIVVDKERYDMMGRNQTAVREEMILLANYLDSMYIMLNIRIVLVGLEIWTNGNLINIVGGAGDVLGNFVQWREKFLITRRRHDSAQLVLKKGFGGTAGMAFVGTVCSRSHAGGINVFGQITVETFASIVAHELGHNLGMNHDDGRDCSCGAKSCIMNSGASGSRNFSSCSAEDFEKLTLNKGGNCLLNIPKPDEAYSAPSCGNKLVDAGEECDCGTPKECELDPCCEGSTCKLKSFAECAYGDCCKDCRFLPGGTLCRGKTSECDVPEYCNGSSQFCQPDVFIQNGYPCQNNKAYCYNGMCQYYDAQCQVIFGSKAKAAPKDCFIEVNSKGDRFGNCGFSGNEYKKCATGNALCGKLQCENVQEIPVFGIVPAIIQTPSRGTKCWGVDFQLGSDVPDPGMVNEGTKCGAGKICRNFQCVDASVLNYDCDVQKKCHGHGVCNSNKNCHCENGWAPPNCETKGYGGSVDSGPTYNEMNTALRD
# Key:
# [1] = target: T1, mouse ADAM 10 catalytic domain; test: Inhibition of mouse ADAM 10 catalytic domain (unpublished observation); type: biochemical
# Method: Mechanism of ADAM 10 prodomain inhibition. For metalloproteinases that exist as zymogens, the presence of a cysteine in their prodomains is often necessary for inhibition of catalytic activity. […] For some of the ADAM family members, the cysteine is required for efficient inhibition of the enzyme. Therefore, a test was conducted to determine whether the cysteine in the putative cysteine switch of ADAM10 prodomain affected the potency of inhibition by preparing a C-terminal His tag construct with the only cysteine mutated to serine. […] The wild type prodomains (23-213), containing either the N- or C-terminal His tags, were both efficient inhibitors of ADAM10 (Table II), with inhibition constants of 75 and 48 nM respectively.
# [2] = target: T2, human ADAM 9 catalytic/disintegrin domains; test: Inhibition assay with ADAM 9; type: biochemical; conditions: read-out: inhibition constant, ADAM 9 (human)
# Method: Inhibition assays with ADAM 9. The fluorescent substrate, Dabcyl-PchaGC(Me)HAK(Fam)-NH2 (SEQ ID NO 19) (10 μM), in a buffer containing 25 mM Tris, pH 8.0, 0.0006% Brij-35, was used to measure human ADAM 9 catalytic/disintegrin domains activity. The ADAM 9 was provided as a 0.1 μg/μl stock solution, from which 3 μl was added to start the reaction in the absence or presence of ADAM10 prodomain (78-5000 nM). Fluorescence intensities were measured every 10-20 minutes at excitation and emission wavelengths of 485 and 530 nm respectively.
# (§1) Calculation of inhibition constants. The amount of activity was calculated by subtracting the ADAM 10 prodomain control from the ADAM 10 prodomain with enzyme. All inhibition assays were performed at room temperature and the data fit to the following equation using Sigma Plot software:
# (§2) [formula] where If is fractional inhibition, I is the inhibitor concentration and Ki is the inhibition constant.
# [3] = system: CD23 shedding in Ramos cells; test: CD23 release from Ramos cells, soluble CD23 ELISA; type: cell-based; conditions: 150-600 nM, IL-4, 24 hr, FIG. 2A
# Method: ADAM 10 prodomains were also tested in assays to determine if ADAM 10 protein functions as a CD23 sheddase. Cells (100,000 per well) were seeded in round-bottomed 96-well plates (Sarstedt, Newton, N.C.) in 0.2 ml of media supplemented with IL-4 with inhibitors (A10 23-215 150-600 nM, GM6001 10-50 μM, TAPI-2 10-50 μM, or TIMPs 250 nM) or vehicle controls (A10 23-215 buffer: 25 mM NaH2PO4 pH 7.0, 125 mM KCl, 75 mM NaCl 20% glycerol, PBS, or dimethyl sulfoxide). Cells were cultured for 24 hr. The conditioned medium was harvested by centrifugation (2000×g, 15 min). The conditioned medium was assayed by ELISA for soluble CD23 according to the manufacturers' instructions (BD Biosciences, Invitrogen).
# TACE (human) Cat/Dis = target: T3, TACE (human) Cat/Dis (Homo sapiens, UniProt P78536); test: Inhibition assay with TACE catalytic/disintegrin construct, fluorescent substrate; type: biochemical; conditions: room temperature; read-out: inhibition constant, TACE (human) Cat/Dis
# T3 construct: containing the catalytic/disintegrin domains; purchased R & D Systems (Minneapolis, Minn., USA)
# T3 sequence (P78536 215-671 limits assumed): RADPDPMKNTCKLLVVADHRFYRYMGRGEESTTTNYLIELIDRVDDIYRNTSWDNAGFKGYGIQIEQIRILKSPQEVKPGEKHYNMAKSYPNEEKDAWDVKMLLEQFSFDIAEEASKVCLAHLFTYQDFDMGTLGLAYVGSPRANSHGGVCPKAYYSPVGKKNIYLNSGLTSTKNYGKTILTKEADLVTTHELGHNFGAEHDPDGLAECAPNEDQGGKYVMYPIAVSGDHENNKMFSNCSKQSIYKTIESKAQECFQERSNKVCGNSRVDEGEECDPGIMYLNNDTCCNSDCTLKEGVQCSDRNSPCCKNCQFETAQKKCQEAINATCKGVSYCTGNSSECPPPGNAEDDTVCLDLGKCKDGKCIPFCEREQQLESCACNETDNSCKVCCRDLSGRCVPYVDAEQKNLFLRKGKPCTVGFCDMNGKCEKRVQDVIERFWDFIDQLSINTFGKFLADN
# Method: (§3) Inhibition assays with TACE and ADAM 10. Activity of TACE catalytic/disintegrin, TACE catalytic, or ADAM10 catalytic/disintegrin constructs was monitored at 3 minute intervals using the fluorescent substrate, Dabcyl-LAQAHomoPheRSC(Fluorescein)-NH2 (SEQ ID NO 17) with excitation 485 nm and emission 530 nm. The substrate was diluted from a 10 mM stock in DMSO to 10 μM in assay buffer containing 20 mM Tris, pH 8.0, and 0.0006% Brij-35. Reactions were run in a 96-well black-coated plate with either ADAM10 prodomain (10 nM-1.0 μM) alone or with enzyme. Concentrations of enzyme ranged from 0.5-2.0 nM for TACE and 5-15 nM for ADAM10. For assays with TACE and ADAM8 prodomain, the range of concentrations varied from 1-4.7 μM.
# as §1, §2
# TACE (human) Cat = target: T4, TACE (human) Cat (Homo sapiens, UniProt P78536); test: Inhibition assay with TACE catalytic domain, fluorescent substrate; type: biochemical; conditions: room temperature; read-out: inhibition constant, TACE (human) Cat
# T4 construct: TACE catalytic domain, Marcos Milla, University of Pennsylvania; donated by Marcos Milla, University of Pennsylvania
# T4 sequence (P78536 223-474 limits assumed): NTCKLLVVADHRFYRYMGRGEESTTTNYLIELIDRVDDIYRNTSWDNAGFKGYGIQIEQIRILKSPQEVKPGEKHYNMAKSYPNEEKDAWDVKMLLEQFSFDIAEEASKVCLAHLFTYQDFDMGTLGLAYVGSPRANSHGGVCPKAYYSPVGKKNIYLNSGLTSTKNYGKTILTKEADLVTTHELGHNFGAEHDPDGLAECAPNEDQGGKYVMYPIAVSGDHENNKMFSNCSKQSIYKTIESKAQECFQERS
# Method: as §3, §1, §2
molecule,measurement,setting,value
"C173S ProADAM 10 23-213 (C-terminal His tag): mouse ADAM 10 prodomain 23-213 with cysteine 173 mutated to serine, C-terminal His tag (protein, UniProt O35598 23-213, looked up, variant C173S, pro-form C-terminal His tag, mouse ADAM 10 prodomain 23-213 with cysteine 173 mutated to serine, C-terminal His tag) NPLNKYIRHYEGLSYNVDSLHQKHQRAKRAVSHEDQFLLLDFHAHGRQFNLRMKRDTSLFSDEFKVETSNKVLDYDTSHIYTGHIYGEEGSFSHGSVIDGRFEGFIKTRGGTFYIEPAERYIKDRILPFHSVIYHEDDINYPHKYGPQGGSADHSVFERMRKYQMTGVEEGARAHPEKHAASSGPELLRKK",Ki,[1],17 ± 10 nM
same,Ki,[2],> 1000 nM
same,"inhibition of CD23 shedding, Ramos cells",[3],about 30%
same,Ki,TACE (human) Cat/Dis,> 3000 nM
same,Ki,TACE (human) Cat,> 3000 nM
